We go through ten molecules from patent publication US20230002488A1 (SYSTIMMUNE, published 2023).

For one assay, the target named is T1, human 4-1BB (human, UniProt Q07011 24-186).
T1 construct: Bought antigen; construct not described
Briefly: BLI (Octet), GNC on AHC sensor, 100 nM antigen as analyte, 1:1 fit.

Assay [1] concerns the target T2, human CD19 (human, UniProt P15391 20-291).
T2 sequence (looked up): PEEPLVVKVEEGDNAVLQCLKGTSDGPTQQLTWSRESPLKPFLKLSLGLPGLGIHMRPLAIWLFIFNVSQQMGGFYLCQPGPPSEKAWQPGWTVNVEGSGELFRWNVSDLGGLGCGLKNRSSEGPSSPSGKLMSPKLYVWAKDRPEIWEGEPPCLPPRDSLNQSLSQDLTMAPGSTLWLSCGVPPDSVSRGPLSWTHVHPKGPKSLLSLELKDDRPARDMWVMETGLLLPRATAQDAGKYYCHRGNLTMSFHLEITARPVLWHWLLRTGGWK
The assay is described as above.

For another assay, the target named is T3, human PD-L1 (human, UniProt Q9NZQ7 19-238).
T3 construct: Bought antigen; construct not described
Described as above.

Another assay addresses human ROR1 (human, UniProt Q01973 30-403, limits assumed). The description is as above.
A further assay concerns the target HER3 on BxPC3 cells (human, UniProt P21860 20-1342). As to the kind of experiment: cell-based or functional assay.
Assay [2] has as its target T2, human CD19. As to the kind of experiment: BLI (Octet), GNC on AHC sensor; strong binding, dissociation too slow to quantify KD. (BLI is a label-free optical method that tracks binding on a fibre tip over time.)
In a further assay the target is T4, human EGFR (human, UniProt P00533 25-645).
T4 construct: also called huEGFR; His-tagged human EGFR
Briefly: BLI (Octet), GNC on AHC sensor, His-tagged human EGFR as analyte, global 1:1 fit.

The target in a further assay is T5, SI-49P7.
T5 construct: Antibody-like penta-GNC protein; NKG2D at D2, 4-1BBL trimer at D4; D1 CD3, D3 PD-L1, D6 CD19; also called αCD3×NKG2D×αPD-L1×41BBL trimer×αCD19
Briefly: BLI (Octet), biotinylated MICA on SA tips, GNC protein 0-100 nM as analyte.

Another assay addresses EGFRvIII (human, UniProt P00533 25-645, limits assumed). As to the kind of experiment: BLI (Octet), GNC on AHC sensor, 100 nM antigen as analyte, 1:1 fit.

B1: SI-38P13 (antibody, human IgG1, kappa)
heavy: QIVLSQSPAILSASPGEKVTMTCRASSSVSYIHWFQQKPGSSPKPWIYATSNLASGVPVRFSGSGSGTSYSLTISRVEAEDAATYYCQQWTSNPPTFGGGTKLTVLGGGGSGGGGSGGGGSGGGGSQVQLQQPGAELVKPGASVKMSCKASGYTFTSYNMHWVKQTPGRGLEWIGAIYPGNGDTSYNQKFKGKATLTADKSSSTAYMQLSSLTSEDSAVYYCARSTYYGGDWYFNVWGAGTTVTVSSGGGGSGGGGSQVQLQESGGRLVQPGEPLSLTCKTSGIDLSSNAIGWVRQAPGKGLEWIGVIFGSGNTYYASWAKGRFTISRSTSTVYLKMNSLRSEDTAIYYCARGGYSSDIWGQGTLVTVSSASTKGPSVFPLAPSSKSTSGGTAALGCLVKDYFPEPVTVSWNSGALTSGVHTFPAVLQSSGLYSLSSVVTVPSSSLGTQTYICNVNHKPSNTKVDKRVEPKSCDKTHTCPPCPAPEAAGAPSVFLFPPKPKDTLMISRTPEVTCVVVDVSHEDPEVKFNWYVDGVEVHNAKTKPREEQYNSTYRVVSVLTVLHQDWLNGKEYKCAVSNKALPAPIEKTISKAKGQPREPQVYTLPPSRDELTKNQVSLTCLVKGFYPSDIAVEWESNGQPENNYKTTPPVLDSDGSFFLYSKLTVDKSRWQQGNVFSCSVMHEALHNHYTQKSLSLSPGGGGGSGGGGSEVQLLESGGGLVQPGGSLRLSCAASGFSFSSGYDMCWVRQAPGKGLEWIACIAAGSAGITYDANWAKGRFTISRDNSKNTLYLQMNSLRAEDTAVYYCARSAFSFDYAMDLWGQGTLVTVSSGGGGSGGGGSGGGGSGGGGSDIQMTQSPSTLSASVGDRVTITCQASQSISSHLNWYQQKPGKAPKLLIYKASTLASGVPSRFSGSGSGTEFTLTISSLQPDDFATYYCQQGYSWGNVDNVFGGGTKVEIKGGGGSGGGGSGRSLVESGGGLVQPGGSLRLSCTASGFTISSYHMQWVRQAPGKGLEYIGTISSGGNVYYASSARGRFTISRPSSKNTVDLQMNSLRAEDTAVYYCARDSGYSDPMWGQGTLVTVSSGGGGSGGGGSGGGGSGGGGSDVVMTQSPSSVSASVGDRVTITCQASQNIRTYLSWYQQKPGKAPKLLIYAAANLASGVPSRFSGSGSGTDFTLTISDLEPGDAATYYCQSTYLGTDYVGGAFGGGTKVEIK
light: DPVLTQSPSSLSASVGDRVTISCQSSQSVAKNNNLAWFQQKPGQAPKLLIYSASTLAAGVPSRFSGSGSGTDFTLTISSVQPEDFATYYCSARDSGNIQSFGGGTKVEIKRTVAAPSVFIFPPSDEQLKSGTASVVCLLNNFYPREAKVQWKVDNALQSGNSQESVTEQDSKDSTYSLSSTLTLSKADYEKHKVYACEVTHQGLSSPVTKSFNRGECGGGGSGGGGSGGGGSQVTLKESGPGLVQPGQTLRLTCAFSGFSLSTSGMGVGWIRQPPGKGLEWLAHIWWDDDKRYNPALKSRLTISKDTSKNQVYLQMNSLDAEDTAVYYCARMELWSYYFDYWGQGTLVTVSSGGGGSGGGGSGGGGSGGGGSENVLTQSPASLSASPGERVTITCSASSSVSYMHWYQQKPGQAPKLWIYDTSKLASGVPSRFSGSGSGNDHTLTISSMEPEDFATYYCFQGSVYPFTFGQGTKVTVL
In general, Kd refers to the equilibrium constant for the complex coming apart. With B1, the equilibrium dissociation constant (Kd) with human 4-1BB is 8.54 nM; with human CD19 [1], 0.181 nM; with human PD-L1, 0.731 nM.

B2: SI-35E20 (antibody)
chain 1: not shown
chain 2: AYDMTQSPSSVSASVGDRVTIKCQASEDIYSFLAWYQQKPGKAPKLLIHSASSLASGVPSRFSGSGSGTDFTLTISSLQPEDFATYYCQQGYGKNNVDNAFGGGTKVEIKRTVAAPSVFIFPPSDEQLKSGTASVVCLLNNFYPREAKVQWKVDNALQSGNSQESVTEQDSKDSTYSLSSTLTLSKADYEKHKVYACEVTHQGLSSPVTKSFNRGEC
In the case of B2, the Kd with human ROR1 worked out at 0.861 nM; in the assay with human 4-1BB it was 4.03 nM; with human PD-L1 it was 0.379 nM.

B3: SI-38E17 (antibody, V domains shown)
VH: EVQLVESGGGLVQPGGSLRLSCAASGFTISTNAMSWVRQAPGKGLEWIGVITGRDITYYASWAKGRFTISRDNSKNTLYLQMNSLRAEDTAVYYCARDGGSSAITSNNIWGQGTLVTVSS
VL: AIQLTQSPSSLSASVGDRVTITCRASQGISSALAWYQQKPGKAPKLLIYDASSLESGVPSRFSGSGSGTDFTLTISSLQPEDFATYYCQQFNSYPFTFGPGTKVDIK
As for B3, the results for the Kd in the assay with human 4-1BB, with human CD19 [1] and with human PD-L1 were 8.19 nM, 1.48 nM and 0.524 nM, respectively.

B4: SI-38P12 (antibody, human IgG1, kappa)
heavy: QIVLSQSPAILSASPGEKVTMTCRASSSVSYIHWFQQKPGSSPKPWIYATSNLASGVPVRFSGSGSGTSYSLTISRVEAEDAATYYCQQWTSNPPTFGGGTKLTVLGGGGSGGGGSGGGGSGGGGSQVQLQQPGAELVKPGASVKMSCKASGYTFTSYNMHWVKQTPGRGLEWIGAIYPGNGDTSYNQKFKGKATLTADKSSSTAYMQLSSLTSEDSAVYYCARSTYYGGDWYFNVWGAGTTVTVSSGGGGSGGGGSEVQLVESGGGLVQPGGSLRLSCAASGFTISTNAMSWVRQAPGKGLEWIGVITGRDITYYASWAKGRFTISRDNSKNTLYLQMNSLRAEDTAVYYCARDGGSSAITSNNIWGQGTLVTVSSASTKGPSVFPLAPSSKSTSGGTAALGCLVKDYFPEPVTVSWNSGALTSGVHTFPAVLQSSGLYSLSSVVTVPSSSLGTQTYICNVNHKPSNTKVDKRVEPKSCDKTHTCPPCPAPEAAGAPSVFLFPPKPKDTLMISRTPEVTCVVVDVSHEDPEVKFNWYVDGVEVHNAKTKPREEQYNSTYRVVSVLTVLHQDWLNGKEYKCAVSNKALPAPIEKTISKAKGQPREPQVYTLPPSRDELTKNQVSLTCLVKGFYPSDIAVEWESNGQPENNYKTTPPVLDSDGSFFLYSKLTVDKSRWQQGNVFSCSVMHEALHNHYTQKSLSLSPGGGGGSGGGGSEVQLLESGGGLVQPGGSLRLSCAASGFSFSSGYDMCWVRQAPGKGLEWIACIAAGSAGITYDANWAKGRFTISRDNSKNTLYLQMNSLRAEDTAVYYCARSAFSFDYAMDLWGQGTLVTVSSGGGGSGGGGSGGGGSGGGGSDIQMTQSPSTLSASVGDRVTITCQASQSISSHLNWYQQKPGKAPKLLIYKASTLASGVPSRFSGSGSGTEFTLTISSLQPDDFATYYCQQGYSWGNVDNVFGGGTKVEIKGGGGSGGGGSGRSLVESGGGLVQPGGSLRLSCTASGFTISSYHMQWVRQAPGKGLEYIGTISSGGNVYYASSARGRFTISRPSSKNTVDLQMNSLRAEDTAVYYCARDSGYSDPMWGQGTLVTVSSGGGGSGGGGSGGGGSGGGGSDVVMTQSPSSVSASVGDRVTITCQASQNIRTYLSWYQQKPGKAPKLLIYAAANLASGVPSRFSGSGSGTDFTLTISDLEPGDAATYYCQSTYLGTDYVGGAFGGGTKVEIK
light: ENVLTQSPASLSASPGERVTITCSASSSVSYMHWYQQKPGQAPKLWIYDTSKLASGVPSRFSGSGSGNDHTLTISSMEPEDFATYYCFQGSVYPFTFGQGTKVTVLGGGGSGGGGSGGGGSGGGGSQVTLKESGPGLVQPGQTLRLTCAFSGFSLSTSGMGVGWIRQPPGKGLEWLAHIWWDDDKRYNPALKSRLTISKDTSKNQVYLQMNSLDAEDTAVYYCARMELWSYYFDYWGQGTLVTVSSGGGGSGGGGSDVVMTQSPSTLSASVGDRVTINCQASESISSWLAWYQQKPGKAPKLLIYEASKLASGVPSRFSGSGSGTEFTLTISSLQPDDFATYYCQGYFYFISRTYVNSFGGGTKVEIKRTVAAPSVFIFPPSDEQLKSGTASVVCLLNNFYPREAKVQWKVDNALQSGNSQESVTEQDSKDSTYSLSSTLTLSKADYEKHKVYACEVTHQGLSSPVTKSFNRGEC
Consider B4, for which the dissociation constant Kd is 4.85 nM with human 4-1BB, 1.11 nM with human CD19 [1] and 0.195 nM with human PD-L1.

B5: SI-55H11 (antibody, human IgG1, kappa)
heavy: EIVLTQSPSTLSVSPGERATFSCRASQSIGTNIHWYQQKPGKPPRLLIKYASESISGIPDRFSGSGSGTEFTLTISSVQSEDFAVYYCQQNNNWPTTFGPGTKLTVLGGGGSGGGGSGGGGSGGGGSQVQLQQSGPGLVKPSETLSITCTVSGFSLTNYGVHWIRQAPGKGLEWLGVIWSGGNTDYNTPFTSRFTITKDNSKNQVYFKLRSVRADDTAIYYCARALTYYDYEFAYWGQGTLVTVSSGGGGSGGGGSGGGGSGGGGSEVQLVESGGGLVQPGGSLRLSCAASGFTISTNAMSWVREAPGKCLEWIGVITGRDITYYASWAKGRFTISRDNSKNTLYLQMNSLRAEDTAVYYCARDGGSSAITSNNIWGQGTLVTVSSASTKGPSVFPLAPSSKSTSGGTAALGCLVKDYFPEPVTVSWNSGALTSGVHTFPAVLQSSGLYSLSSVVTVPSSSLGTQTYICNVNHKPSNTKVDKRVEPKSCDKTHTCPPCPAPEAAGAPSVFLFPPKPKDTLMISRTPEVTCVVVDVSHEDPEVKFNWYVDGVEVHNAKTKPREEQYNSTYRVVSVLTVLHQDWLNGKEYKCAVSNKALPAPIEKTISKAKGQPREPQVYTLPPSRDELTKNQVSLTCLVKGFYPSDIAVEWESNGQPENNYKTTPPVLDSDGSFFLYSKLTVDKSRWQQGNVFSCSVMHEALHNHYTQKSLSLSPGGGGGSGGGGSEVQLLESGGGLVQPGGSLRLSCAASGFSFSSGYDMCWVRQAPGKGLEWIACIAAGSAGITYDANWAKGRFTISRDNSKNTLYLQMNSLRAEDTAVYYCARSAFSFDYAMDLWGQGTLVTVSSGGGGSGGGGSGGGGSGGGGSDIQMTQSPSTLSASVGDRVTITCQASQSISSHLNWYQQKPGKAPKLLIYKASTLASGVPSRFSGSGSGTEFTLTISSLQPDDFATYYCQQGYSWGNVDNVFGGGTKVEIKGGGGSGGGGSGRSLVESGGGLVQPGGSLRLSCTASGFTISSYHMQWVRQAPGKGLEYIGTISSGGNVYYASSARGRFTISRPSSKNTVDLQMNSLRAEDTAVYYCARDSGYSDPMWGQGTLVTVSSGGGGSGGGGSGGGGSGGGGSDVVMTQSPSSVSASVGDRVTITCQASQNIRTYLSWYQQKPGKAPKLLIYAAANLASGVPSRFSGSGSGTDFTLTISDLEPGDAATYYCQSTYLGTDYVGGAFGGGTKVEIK
light: ENVLTQSPASLSASPGERVTITCSASSSVSYMHWYQQKPGQAPKLWIYDTSKLASGVPSRFSGSGSGNDHTLTISSMEPEDFATYYCFQGSVYPFTFGQGTKVTVLGGGGSGGGGSGGGGSGGGGSQVTLKESGPGLVQPGQTLSLTCAFSGFSLSTSGMGVGWIRQPPGKGLEWLAHIWWDDDKRYNPALKSRLTISKDTSKNQVYLQMNSLDAEDTAVYYCARMELWSYYFDYWGQGTLVTVSSGGGGSGGGGSDVVMTQSPSTLSASVGDRVTINCQASESISSWLAWYQQKPGKAPKLLIYEASKLASGVPSRFSGSGSGTEFTLTISSLQPDDFATYYCQGYFYFISRTYVNSFGCGTKVEIKRTVAAPSVFIFPPSDEQLKSGTASVVCLLNNFYPREAKVQWKVDNALQSGNSQESVTEQDSKDSTYSLSSTLTLSKADYEKHKVYACEVTHQGLSSPVTKSFNRGECGGGGSGGGGSGGGGSQSALTQPASVSGSPGQSITISCTGTSSDVGGYNFVSWYQQHPGKAPKLMIYDVSDRPSGVSDRFSGSKSGNTASLIISGLQADDEADYYCSSYGSSSTHVIFGGGTKVTVLGGGGSGGGGSGGGGSGGGGSQVQLQESGGGLVKPGGSLSLSCAASGFTFSSYWMSWVRQAPGKGLEWVANINRDGSASYYVDSVKGRFTISRDDAKNSLYLQMNSLRAEDTAVYYCARDRGVGYFDLWGRGTLVTVSS
notes: also called hexa-GNC antibody SI-55H11
B5: the “TDCC EC50 (pM), BxPC3 target cells” value with HER3 on BxPC3 cells came to 0.0939 pM. Moreover, the equilibrium dissociation constant (Kd) stood at 4.91 nM with human 4-1BB, 6.8 nM in the assay with human CD19 [1] and 0.737 nM in the assay with human PD-L1.

B6: SI-55H12 (antibody, human IgG1, kappa)
heavy: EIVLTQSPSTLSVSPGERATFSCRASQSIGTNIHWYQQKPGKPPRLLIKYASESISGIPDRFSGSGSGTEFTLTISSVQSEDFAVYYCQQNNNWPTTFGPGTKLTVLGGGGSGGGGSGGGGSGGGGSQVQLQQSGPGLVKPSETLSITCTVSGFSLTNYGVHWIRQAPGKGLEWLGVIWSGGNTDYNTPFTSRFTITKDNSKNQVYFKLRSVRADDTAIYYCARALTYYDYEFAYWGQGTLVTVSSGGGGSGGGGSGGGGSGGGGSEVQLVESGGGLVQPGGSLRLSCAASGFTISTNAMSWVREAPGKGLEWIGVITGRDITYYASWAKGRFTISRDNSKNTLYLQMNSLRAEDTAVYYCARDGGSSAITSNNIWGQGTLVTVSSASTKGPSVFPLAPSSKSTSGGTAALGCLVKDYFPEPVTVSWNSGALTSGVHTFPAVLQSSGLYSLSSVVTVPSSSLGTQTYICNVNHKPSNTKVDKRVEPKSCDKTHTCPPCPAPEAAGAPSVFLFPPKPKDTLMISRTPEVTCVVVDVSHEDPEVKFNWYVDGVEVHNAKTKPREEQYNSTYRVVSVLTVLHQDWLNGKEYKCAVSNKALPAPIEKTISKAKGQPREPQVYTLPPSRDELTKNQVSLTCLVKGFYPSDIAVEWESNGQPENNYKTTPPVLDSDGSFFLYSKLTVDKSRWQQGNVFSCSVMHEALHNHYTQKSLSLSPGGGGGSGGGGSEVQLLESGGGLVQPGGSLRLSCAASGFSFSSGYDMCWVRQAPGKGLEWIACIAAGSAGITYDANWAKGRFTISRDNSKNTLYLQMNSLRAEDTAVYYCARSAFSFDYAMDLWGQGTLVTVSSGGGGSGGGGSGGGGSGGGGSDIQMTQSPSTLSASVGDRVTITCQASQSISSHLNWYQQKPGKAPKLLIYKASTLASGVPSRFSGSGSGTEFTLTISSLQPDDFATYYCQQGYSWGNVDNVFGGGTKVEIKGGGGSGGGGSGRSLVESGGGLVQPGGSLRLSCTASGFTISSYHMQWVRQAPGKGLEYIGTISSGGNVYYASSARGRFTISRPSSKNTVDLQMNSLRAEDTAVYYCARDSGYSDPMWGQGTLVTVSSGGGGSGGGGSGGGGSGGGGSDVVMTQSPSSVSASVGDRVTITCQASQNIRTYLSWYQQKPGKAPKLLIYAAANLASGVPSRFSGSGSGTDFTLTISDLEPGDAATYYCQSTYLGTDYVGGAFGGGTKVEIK
light: ENVLTQSPASLSASPGERVTITCSASSSVSYMHWYQQKPGQAPKLWIYDTSKLASGVPSRFSGSGSGNDHTLTISSMEPEDFATYYCFQGSVYPFTFGQGTKVTVLGGGGSGGGGSGGGGSGGGGSQVTLKESGPGLVQPGQTLSLTCAFSGFSLSTSGMGVGWIRQPPGKGLEWLAHIWWDDDKRYNPALKSRLTISKDTSKNQVYLQMNSLDAEDTAVYYCARMELWSYYFDYWGQGTLVTVSSGGGGSGGGGSDVVMTQSPSTLSASVGDRVTINCQASESISSWLAWYQQKPGKAPKLLIYEASKLASGVPSRFSGSGSGTEFTLTISSLQPDDFATYYCQGYFYFISRTYVNSFGGGTKVEIKRTVAAPSVFIFPPSDEQLKSGTASVVCLLNNFYPREAKVQWKVDNALQSGNSQESVTEQDSKDSTYSLSSTLTLSKADYEKHKVYACEVTHQGLSSPVTKSFNRGECGGGGSGGGGSGGGGSQSALTQPASVSGSPGQSITISCTGTSSDVGGYNFVSWYQQHPGKAPKLMIYDVSDRPSGVSDRFSGSKSGNTASLIISGLQADDEADYYCSSYGSSSTHVIFGGGTKVTVLGGGGSGGGGSGGGGSGGGGSQVQLQESGGGLVKPGGSLSLSCAASGFTFSSYWMSWVRQAPGKGLEWVANINRDGSASYYVDSVKGRFTISRDDAKNSLYLQMNSLRAEDTAVYYCARDRGVGYFDLWGRGTLVTVSS
Take B6: the binding result with human CD19 [2] is given as “binds”. For the same molecule, the dissociation constant (Kd) in the assay with human 4-1BB was found to be 7.87 nM; with human PD-L1, 0.25 nM.

B7: SI-55P3 (antibody, human IgG1, kappa)
heavy: not shown
light: ENVLTQSPASLSASPGERVTITCSASSSVSYMHWYQQKPGQAPKLWIYDTSKLASGVPSRFSGSGSGNDHTLTISSMEPEDFATYYCFQGSVYPFTFGQGTKVTVLGGGGSGGGGSGGGGSGGGGSQVTLKESGPGLVQPGQTLRLTCAFSGFSLSTSGMGVGWIRQPPGKGLEWLAHIWWDDDKRYNPALKSRLTISKDTSKNQVYLQMNSLDAEDTAVYYCARMELWSYYFDYWGQGTLVTVSSGGGGSGGGGSDPVLTQSPSSLSASVGDRVTISCQSSQSVAKNNNLAWFQQKPGQAPKLLIYSASTLAAGVPSRFSGSGSGTDFTLTISSVQPEDFATYYCSARDSGNIQSFGGGTKVEIKRTVAAPSVFIFPPSDEQLKSGTASVVCLLNNFYPREAKVQWKVDNALQSGNSQESVTEQDSKDSTYSLSSTLTLSKADYEKHKVYACEVTHQGLSSPVTKSFNRGEC
notes: Penta-specific: D1 humanized anti-EGFR H1 scFv, D2 CD3, D3 PD-L1, D4 4-1BB, D6 CD19
In the assay with human EGFR, B7 registered a dissociation constant (Kd) of 18.1 nM.

B8: SI-79P2 (antibody, human IgG1, kappa)
heavy: not shown
light: ENVLTQSPASLSASPGERVTITCSASSSVSYMHWYQQKPGQAPKLWIYDTSKLASGVPSRFSGSGSGNDHTLTISSMEPEDFATYYCFQGSVYPFTFGQGTKVTVLGGGGSGGGGSGGGGSGGGGSQVTLKESGPGLVQPGQTLRLTCAFSGFSLSTSGMGVGWIRQPPGKGLEWLAHIWWDDDKRYNPALKSRLTISKDTSKNQVYLQMNSLDAEDTAVYYCARMELWSYYFDYWGQGTLVTVSSGGGGSGGGGSDPVLTQSPSSLSASVGDRVTISCQSSQSVAKNNNLAWFQQKPGQAPKLLIYSASTLAAGVPSRFSGSGSGTDFTLTISSVQPEDFATYYCSARDSGNIQSFGGGTKVEIKRTVAAPSVFIFPPSDEQLKSGTASVVCLLNNFYPREAKVQWKVDNALQSGNSQESVTEQDSKDSTYSLSSTLTLSKADYEKHKVYACEVTHQGLSSPVTKSFNRGEC
notes: Penta-specific: D1 humanized anti-EGFR H4 scFv, D2 CD3, D3 PD-L1, D4 4-1BB, D6 CD19
Regarding B8, in the assay with human EGFR, the dissociation constant (Kd) worked out at 4.3 nM.

B9: biotinylated human MICA (ligand, UniProt Q29983 24-308, looked up)
chain: EPHSLRYNLTVLSWDGSVQSGFLTEVHLDGQPFLRCDRQKCRAKPQGQWAEDVLGNKTWDRETRDLTGNGKDLRMTLAHIKDQKEGLHSLQEIRVCEIHEDNSTRSSQHFYYDGELFLSQNLETKEWTMPQSSRAQTLAMNVRNFLKEDAMKTKTHYHAMHADCLQELRRYLKSGVVLRRTVPPMVNVTRSEASEGNITVTCRASGFYPWNITLSWRQDGVSLSHDTQQWGDVLPDGNGTYQTWVATRICQGEEQRFTCYMEHSGNHSTHPVPSGKVLVLQSHWQ
modifications: biotinylated (site not stated)
notes: Loaded on SA tips as ligand for SI-49P6 and SI-49P7
In the assay with SI-49P7, B9 had a dissociation constant (Kd) of 10.7 nM.

B10: SI-39E18 (antibody)
chain 1: not shown
chain 2: DILMTQSPSSMSVSLGDTVSITCHSSQDINSNIGWLQQRPGKSFKGLIYHGTNLDDEVPSRFSGSGSGADYSLTISSLESEDFADYYCVQYAQFPWTFGGGTKLEIKRTVAAPSVFIFPPSDEQLKSGTASVVCLLNNFYPREAKVQWKVDNALQSGNSQESVTEQDSKDSTYSLSSTLTLSKADYEKHKVYACEVTHQGLSSPVTKSFNRGEC
Turning to B10, the Kd with human 4-1BB is 18.1 nM; in the assay with human PD-L1 it was 0.421 nM; with EGFRvIII, 16.4 nM.
